Measurements taken from patent publication US20140348838A1 (AbbVie / Abbott, published 2014).
Blank lines part the entries; values can stand above or below the binder they belong to.

Assays:
human IL-1α [1] = target: T1, human IL-1α (human, UniProt P01583 113-271, biotinylated in the ELISA (site not stated)); assay: ELISA: DVD-Ig captured on anti-human Fc, biotinylated antigen titrated
T1 construct: also called hIL-1α; Human mature IL-1α
T1 sequence: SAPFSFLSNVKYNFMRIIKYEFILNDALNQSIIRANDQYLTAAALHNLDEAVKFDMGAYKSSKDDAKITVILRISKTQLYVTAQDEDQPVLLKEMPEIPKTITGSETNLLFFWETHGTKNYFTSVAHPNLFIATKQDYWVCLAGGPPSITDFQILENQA
Description: (§1) To determine if the anti-IL-1β mAbs bind to human IL-1β, ELISA plates (Nunc, MaxiSorp, Rochester, N.Y.) were incubated overnight at 4° C. with anti-human Fc antibody diluted in Pierce Coat buffer at 2 μg/ml (Jackson Immunoresearch, West Grove, Pa.). Plates were washed five times in washing buffer (PBS containing 0.05% Tween 20), and blocked for 1 hour at 25° C. with 200 μl per well superblock blocking buffer (Thermo scientific, No. 37515). Blocking buffer was removed by tapping plates, and 2 μg/ml of each antibody in PBS containing 10% Superblock, 0.5% Tween-20 was added to the wells at 100 μl/well and incubated at 25° C. for 1 hour. The wells were washed five times in 1×PBST, and 1 μg/ml biotinylated antigen was titrated at 1:6 serial dilutions (for a range of μg to pg in PBS containing 10% Superblock, 0.05% Tween 20). Each dilution of antigen was then added to the plates and incubated for 1 hour at 25° C. […] The wells were washed five times in 1×PBST, and 100 μl of ULTRA-TMB ELISA (Pierce, Rockford, Ill.) were added per well. Following color development the reaction was stopped with 1N HCL and absorbance at 450 nm was measured.
(§2) IL-1β and IL-1α binding by IL-1β/α DVD-Ig binding proteins was assessed by ELISA (assay described above, Example 2.1).

human IL-1α [2] = target: T1, human IL-1α; assay: cell-based or functional assay
cynomolgus IL-1α [3] = target: T2, cynomolgus IL-1α (cynomolgus, UniProt P79340 113-271); assay: cell-based or functional assay
T2 sequence (looked up): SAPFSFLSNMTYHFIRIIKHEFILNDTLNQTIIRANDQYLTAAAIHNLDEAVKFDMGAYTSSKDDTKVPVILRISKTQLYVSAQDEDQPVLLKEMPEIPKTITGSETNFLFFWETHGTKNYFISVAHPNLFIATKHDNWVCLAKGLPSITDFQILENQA

human IL-1α [4] = target: T1, human IL-1α; assay: SPR (Biacore), DVD-Ig captured, antigen in solution
cynomolgus IL-1α [5] = target: T2, cynomolgus IL-1α; assay: as above
human IL-1α [6] = target: T1, human IL-1α; assay: Biacore (SPR), sequential injections on captured DVD-Ig: IL-1α as 2nd injection, after IL-1β
cynomolgus IL-1β [7] = target: T3, cynomolgus IL-1β (cynomolgus, UniProt P79182 117-268); assay: cell-based or functional assay
T3 sequence (looked up): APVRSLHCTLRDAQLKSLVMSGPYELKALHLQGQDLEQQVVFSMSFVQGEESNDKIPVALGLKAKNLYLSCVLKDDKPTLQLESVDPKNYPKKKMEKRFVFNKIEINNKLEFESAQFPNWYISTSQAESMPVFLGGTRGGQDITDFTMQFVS

human IL-1β [8] = target: T4, human IL-1β (human, UniProt P01584 117-269, biotinylated in the ELISA (site not stated)); assay: cell-based or functional assay
cynomolgus IL-1β [9] = target: T3, cynomolgus IL-1β; assay: SPR (Biacore), DVD-Ig captured, antigen in solution
human IL-1β [10] = target: T4, human IL-1β; assay: as above
human IL-1β [11] = target: T4, human IL-1β; assay: ELISA: DVD-Ig captured on anti-human Fc, biotinylated antigen titrated
Description: as §1, §2

human IL-1β [12] = target: T4, human IL-1β; assay: ELISA: antibody captured on anti-human Fc, biotinylated antigen titrated
Description: as §1

EC50 (human IL-1α [1]): 4.5 pM
B1: X3-SS-E26.13 DVD-Ig (bispecific antibody, human IgG1, kappa, L234A L235A)
heavy: not shown
light: DIQMTQSPSSVSASVGDRVTITCRASQGISSWLAWYQQKPGKAPKLLIYEASNLETGVPSRFSGSGSGSDFTLTISSLQPEDFATYYCQQTSSFLLSFGGGTKVEHKRTVAAPDIQMTQSPSSLSASVGDRVTITCRASGNIHNYLTWYQQTPGKAPKLLIYNAKTLADGVPSRFSGSGSGTDYTFTISSLQPEDIATYYCQHFWSIPYTFGQGTKLQITRTVAAPSVFIFPPSDEQLKSGTASVVCLLNNFYPREAKVQWKVDNALQSGNSQESVTEQDSKDSTYSLSSTLTLSKADYEKHKVYACEVTHQGLSSPVTKSFNRGEC
notes: Dual variable domain immunoglobulin

Potency (pM): neutralization of IL-1-induced hIL-8 in MRC5 cells (human IL-1α [2]): 10.2 pM
Potency (pM): neutralization of IL-1-induced hIL-8 in MRC5 cells (cynomolgus IL-1α [3]): 1050 pM
Kd (human IL-1α [4]): 6.15 pM
koff (human IL-1α [4]): 3.9e-06 s⁻¹
kon (human IL-1α [4]): 646000 M⁻¹ s⁻¹
Kd (cynomolgus IL-1α [5]): 3.24 nM
koff (cynomolgus IL-1α [5]): 0.00105 s⁻¹
kon (cynomolgus IL-1α [5]): 315000 M⁻¹ s⁻¹
EC50 (human IL-1α [1]): 5.8 pM
B2: E26.13-LL-X3 DVD-Ig (bispecific antibody, human IgG1, kappa, L234A L235A)
heavy: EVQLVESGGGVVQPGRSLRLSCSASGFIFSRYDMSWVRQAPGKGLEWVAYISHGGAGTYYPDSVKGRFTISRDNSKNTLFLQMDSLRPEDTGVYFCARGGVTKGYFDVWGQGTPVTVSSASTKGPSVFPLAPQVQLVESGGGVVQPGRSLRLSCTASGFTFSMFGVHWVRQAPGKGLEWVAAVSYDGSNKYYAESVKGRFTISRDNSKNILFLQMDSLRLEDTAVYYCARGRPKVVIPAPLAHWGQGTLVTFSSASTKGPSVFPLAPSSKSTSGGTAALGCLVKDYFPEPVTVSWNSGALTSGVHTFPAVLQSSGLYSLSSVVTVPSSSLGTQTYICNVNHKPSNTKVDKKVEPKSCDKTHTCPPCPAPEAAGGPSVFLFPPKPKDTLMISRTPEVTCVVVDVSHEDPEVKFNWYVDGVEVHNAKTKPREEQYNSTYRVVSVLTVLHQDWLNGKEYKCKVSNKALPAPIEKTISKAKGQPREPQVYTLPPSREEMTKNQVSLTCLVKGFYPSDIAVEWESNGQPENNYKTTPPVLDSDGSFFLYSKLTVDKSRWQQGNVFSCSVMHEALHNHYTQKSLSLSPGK
light: DIQMTQSPSSLSASVGDRVTITCRASGNIHNYLTWYQQTPGKAPKLLIYNAKTLADGVPSRFSGSGSGTDYTFTISSLQPEDIATYYCQHFWSIPYTFGQGTKLQITRTVAAPSVFIFPPDIQMTQSPSSVSASVGDRVTITCRASQGISSWLAWYQQKPGKAPKLLIYEASNLETGVPSRFSGSGSGSDFTLTISSLQPEDFATYYCQQTSSFLLSFGGGTKVEHKRTVAAPSVFIFPPSDEQLKSGTASVVCLLNNFYPREAKVQWKVDNALQSGNSQESVTEQDSKDSTYSLSSTLTLSKADYEKHKVYACEVTHQGLSSPVTKSFNRGEC
notes: as for B1

stoichiometry (human IL-1α [6]): 1.6
Kd (human IL-1α [4]): 7.61 pM
Kd (cynomolgus IL-1α [5]): 4.11 nM
B3: E26.13-SS-X3 DVD-Ig (bispecific antibody, human IgG1, kappa, L234A L235A)
heavy: not shown
light: DIQMTQSPSSLSASVGDRVTITCRASGNIHNYLTWYQQTPGKAPKLLIYNAKTLADGVPSRFSGSGSGTDYTFTISSLQPEDIATYYCQHFWSIPYTFGQGTKLQITRTVAAPDIQMTQSPSSVSASVGDRVTITCRASQGISSWLAWYQQKPGKAPKLLIYEASNLETGVPSRFSGSGSGSDFTLTISSLQPEDFATYYCQQTSSFLLSFGGGTKVEHKRTVAAPSVFIFPPSDEQLKSGTASVVCLLNNFYPREAKVQWKVDNALQSGNSQESVTEQDSKDSTYSLSSTLTLSKADYEKHKVYACEVTHQGLSSPVTKSFNRGEC
notes: as for B1

Potency (pM): neutralization of IL-1-induced hIL-8 in MRC5 cells (cynomolgus IL-1β [7]): 0.6 pM
Potency (pM): neutralization of IL-1-induced hIL-8 in MRC5 cells (human IL-1α [2]): 25.8 pM
Potency (pM): neutralization of IL-1-induced hIL-8 in MRC5 cells (human IL-1β [8]): 1.8 pM
Potency (pM): neutralization of IL-1-induced hIL-8 in MRC5 cells (cynomolgus IL-1α [3]): 474 pM
Kd (cynomolgus IL-1β [9]): 0.0106 nM
koff (cynomolgus IL-1β [9]): 1.94e-05 s⁻¹
kon (cynomolgus IL-1β [9]): 1.84e+06 M⁻¹ s⁻¹
Kd (human IL-1α [4]): 13.3 pM
koff (human IL-1α [4]): 2.14e-06 s⁻¹
kon (human IL-1α [4]): 162000 M⁻¹ s⁻¹
Kd (human IL-1β [10]): 5.03 pM
koff (human IL-1β [10]): 6.81e-06 s⁻¹
kon (human IL-1β [10]): 1.32e+06 M⁻¹ s⁻¹
Kd (cynomolgus IL-1α [5]): 3.27 nM
koff (cynomolgus IL-1α [5]): 0.000236 s⁻¹
kon (cynomolgus IL-1α [5]): 72400 M⁻¹ s⁻¹
EC50 (human IL-1α [1]): 6.2 pM
EC50 (human IL-1β [11]): 8 pM
B4: E26.35-SS-X3 DVD-Ig (bispecific antibody, human IgG1, kappa, L234A L235A)
heavy: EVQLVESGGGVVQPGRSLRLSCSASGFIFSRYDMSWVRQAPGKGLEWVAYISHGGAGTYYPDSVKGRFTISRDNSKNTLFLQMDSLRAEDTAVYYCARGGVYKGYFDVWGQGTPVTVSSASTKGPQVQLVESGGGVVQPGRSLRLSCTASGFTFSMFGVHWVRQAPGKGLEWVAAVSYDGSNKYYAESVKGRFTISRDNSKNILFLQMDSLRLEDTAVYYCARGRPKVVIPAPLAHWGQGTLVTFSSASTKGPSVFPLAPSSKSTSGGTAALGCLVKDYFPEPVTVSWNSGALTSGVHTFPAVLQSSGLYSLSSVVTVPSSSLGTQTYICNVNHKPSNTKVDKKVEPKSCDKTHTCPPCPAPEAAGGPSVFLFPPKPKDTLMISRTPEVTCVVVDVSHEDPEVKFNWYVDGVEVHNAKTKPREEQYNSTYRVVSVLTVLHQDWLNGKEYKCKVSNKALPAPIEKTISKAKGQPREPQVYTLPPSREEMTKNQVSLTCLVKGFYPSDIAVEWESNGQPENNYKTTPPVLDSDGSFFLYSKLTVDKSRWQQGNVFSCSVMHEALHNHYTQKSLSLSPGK
light: DIQMTQSPSSLSASVGDRVTITCRASGNIHNYLTWYQQTPGKAPKLLIYNAKTLADGVPSRFSGSGSGTDYTFTISSLQPEDIATYYCQHFWSIPYTFGQGTKLQITRTVAAPDIQMTQSPSSVSASVGDRVTITCRASQGISSWLAWYQQKPGKAPKLLIYEASNLETGVPSRFSGSGSGSDFTLTISSLQPEDFATYYCQQTSSFLLSFGGGTKVEHKRTVAAPSVFIFPPSDEQLKSGTASVVCLLNNFYPREAKVQWKVDNALQSGNSQESVTEQDSKDSTYSLSSTLTLSKADYEKHKVYACEVTHQGLSSPVTKSFNRGEC
notes: as for B1

Potency (pM): neutralization of IL-1-induced hIL-8 in MRC5 cells (cynomolgus IL-1β [7]): 17.6 pM
Potency (pM): neutralization of IL-1-induced hIL-8 in MRC5 cells (human IL-1α [2]): 26.5 pM
Potency (pM): neutralization of IL-1-induced hIL-8 in MRC5 cells (cynomolgus IL-1α [3]): 1880 pM
EC50 (human IL-1α [1]): 4.3 pM
B5: E26.13-SS-X3 JM DVD-Ig (bispecific antibody, human IgG1, kappa, L234A L235A)
heavy: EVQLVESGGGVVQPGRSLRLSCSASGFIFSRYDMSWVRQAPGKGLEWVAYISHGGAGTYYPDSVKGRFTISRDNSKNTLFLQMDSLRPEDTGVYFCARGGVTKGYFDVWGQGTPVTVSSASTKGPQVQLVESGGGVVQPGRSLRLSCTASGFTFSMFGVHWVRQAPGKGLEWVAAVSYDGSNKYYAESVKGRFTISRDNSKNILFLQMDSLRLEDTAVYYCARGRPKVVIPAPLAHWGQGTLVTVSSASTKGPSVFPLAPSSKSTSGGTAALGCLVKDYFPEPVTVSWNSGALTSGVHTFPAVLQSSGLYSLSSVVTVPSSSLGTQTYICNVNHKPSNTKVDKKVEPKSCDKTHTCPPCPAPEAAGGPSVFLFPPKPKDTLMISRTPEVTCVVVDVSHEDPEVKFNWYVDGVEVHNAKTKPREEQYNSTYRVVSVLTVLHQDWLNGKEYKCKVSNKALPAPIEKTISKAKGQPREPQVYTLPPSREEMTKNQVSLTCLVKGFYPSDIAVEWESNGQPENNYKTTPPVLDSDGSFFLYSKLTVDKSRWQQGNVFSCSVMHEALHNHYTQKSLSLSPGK
light: DIQMTQSPSSLSASVGDRVTITCRASGNIHNYLTWYQQTPGKAPKLLIYNAKTLADGVPSRFSGSGSGTDYTFTISSLQPEDIATYYCQHFWSIPYTFGQGTKLQITRTVAAPDIQMTQSPSSVSASVGDRVTITCRASQGISSWLAWYQQKPGKAPKLLIYEASNLETGVPSRFSGSGSGSDFTLTISSLQPEDFATYYCQQTSSFLLSFGGGTKVEIKRTVAAPSVFIFPPSDEQLKSGTASVVCLLNNFYPREAKVQWKVDNALQSGNSQESVTEQDSKDSTYSLSSTLTLSKADYEKHKVYACEVTHQGLSSPVTKSFNRGEC
notes: Dual variable domain immunoglobulin; X3 is mutated in the J-region (X3 JM)

EC50 (human IL-1α [1]): 4 pM
EC50 (human IL-1β [11]): 6.3 pM
B6: E26.35-SS-X3 JM DVD-Ig (bispecific antibody, human IgG1, kappa, L234A L235A)
heavy: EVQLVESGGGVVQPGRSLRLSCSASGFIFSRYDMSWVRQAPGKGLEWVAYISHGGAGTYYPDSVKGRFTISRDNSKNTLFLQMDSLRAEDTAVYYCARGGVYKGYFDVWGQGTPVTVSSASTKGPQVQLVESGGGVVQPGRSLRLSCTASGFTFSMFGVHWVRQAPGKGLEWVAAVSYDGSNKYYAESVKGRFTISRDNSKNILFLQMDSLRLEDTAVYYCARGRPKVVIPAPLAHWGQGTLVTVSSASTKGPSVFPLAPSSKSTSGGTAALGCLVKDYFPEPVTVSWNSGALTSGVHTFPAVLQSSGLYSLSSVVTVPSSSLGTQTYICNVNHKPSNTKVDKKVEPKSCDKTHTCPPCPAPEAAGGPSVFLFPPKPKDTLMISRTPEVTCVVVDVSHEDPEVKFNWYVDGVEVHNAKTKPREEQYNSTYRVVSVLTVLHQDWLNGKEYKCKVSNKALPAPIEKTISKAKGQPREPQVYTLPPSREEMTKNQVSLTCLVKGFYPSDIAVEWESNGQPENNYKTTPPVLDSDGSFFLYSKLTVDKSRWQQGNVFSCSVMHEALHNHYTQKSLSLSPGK
light: DIQMTQSPSSLSASVGDRVTITCRASGNIHNYLTWYQQTPGKAPKLLIYNAKTLADGVPSRFSGSGSGTDYTFTISSLQPEDIATYYCQHFWSIPYTFGQGTKLQITRTVAAPDIQMTQSPSSVSASVGDRVTITCRASQGISSWLAWYQQKPGKAPKLLIYEASNLETGVPSRFSGSGSGSDFTLTISSLQPEDFATYYCQQTSSFLLSFGGGTKVEIKRTVAAPSVFIFPPSDEQLKSGTASVVCLLNNFYPREAKVQWKVDNALQSGNSQESVTEQDSKDSTYSLSSTLTLSKADYEKHKVYACEVTHQGLSSPVTKSFNRGEC
notes: as for B5

EC50 (human IL-1β [12]): 0.014 nM
B7: E26.11 (antibody, V domains shown)
VH: EVQLVESGGGVVQPGRSLRLSCSASGFIFSRYDMSWVRQAPGKGLEWVAYISHGGAGTYYPDSVKGRFTISRDNSKNTLFLQMDSLRPEDTAVYYCARGGVYKGYFDVWGQGTPVTVSS
VL: DIQMTQSPSSLSASVGDRVTITCRASGNIHNYLTWYQQTPGKAPKLLIYNAKTLADGVPSRFSGSGSGTDYTFTISSLQPEDIATYYCQHFWSIPYTFGQGTKLQIT

Potency (pM): neutralization of IL-1-induced hIL-8 in MRC5 cells (human IL-1α [2]): 8.9 pM
Potency (pM): neutralization of IL-1-induced hIL-8 in MRC5 cells (human IL-1β [8]): 1470 pM
B8: X3-LL-E26.13 DVD-Ig (bispecific antibody, human IgG1, kappa, L234A L235A)
heavy: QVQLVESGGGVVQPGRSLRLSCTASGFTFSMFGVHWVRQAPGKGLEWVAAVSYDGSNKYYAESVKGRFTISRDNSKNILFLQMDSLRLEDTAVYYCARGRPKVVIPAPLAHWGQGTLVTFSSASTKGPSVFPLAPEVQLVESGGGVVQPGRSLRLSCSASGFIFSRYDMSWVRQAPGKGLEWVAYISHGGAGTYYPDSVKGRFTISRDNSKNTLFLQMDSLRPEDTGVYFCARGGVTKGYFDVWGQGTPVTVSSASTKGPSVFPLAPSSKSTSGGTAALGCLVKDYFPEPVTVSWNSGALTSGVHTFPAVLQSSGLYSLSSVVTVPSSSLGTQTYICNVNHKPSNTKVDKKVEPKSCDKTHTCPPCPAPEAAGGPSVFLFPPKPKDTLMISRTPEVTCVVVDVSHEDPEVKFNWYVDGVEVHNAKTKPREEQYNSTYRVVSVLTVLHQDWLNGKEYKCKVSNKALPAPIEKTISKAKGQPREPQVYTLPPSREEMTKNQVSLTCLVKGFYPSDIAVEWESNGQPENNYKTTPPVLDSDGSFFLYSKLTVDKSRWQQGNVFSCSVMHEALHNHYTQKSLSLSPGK
light: DIQMTQSPSSVSASVGDRVTITCRASQGISSWLAWYQQKPGKAPKLLIYEASNLETGVPSRFSGSGSGSDFTLTISSLQPEDFATYYCQQTSSFLLSFGGGTKVEHKRTVAAPSVFIFPPDIQMTQSPSSLSASVGDRVTITCRASGNIHNYLTWYQQTPGKAPKLLIYNAKTLADGVPSRFSGSGSGTDYTFTISSLQPEDIATYYCQHFWSIPYTFGQGTKLQITRTVAAPSVFIFPPSDEQLKSGTASVVCLLNNFYPREAKVQWKVDNALQSGNSQESVTEQDSKDSTYSLSSTLTLSKADYEKHKVYACEVTHQGLSSPVTKSFNRGEC
